For one experiment, the system named is pericytes. Briefly: Quantification of viable cells by MTT assay, pericytes. It is filed as cell-based, bovine. Conditions: 5-160 nM, 72 h, P>0.05. The protocol: (§1) FIG. 2 illustrates the specific inhibition of endothelial cell proliferation by recombinant kallistatin. RCEC were treated with recombinant kallistatin at concentrations of 5,10, 20, 40, 80 and 160 nM for 72 h. Viable cells were quantified by MTT assay. […] This effect appeared to be kallistatin concentration-dependent, with an apparent IC50 of 50 nM (FIG. 2) which is similar to that of K5, a known angiogenic inhibitor (Zhang et al., 2001).
(§2) Quantification of viable cells: Cells were plated in 12-well plates in triplicate and cultured in the growth medium until they reached 60-70% of confluency. The culture medium was replaced with a medium containing 1% fetal bovine serum (FBS). Recombinant kallistatin was added to the cover medium to various concentrations and incubated with the cells for 72 h. The viable cells were quantified by the MTT (3-[4,5-dimethylthiazol-2-yl]-2,5-dephenyl tetrazolium bromid, Roche, Mannheim, Germany) assay following a protocol recommended by the manufacturer. The effect of kallistatin on viable cell number was analyzed using Student's t test.

The test system of experiment [1] is rat Müller cell line, rMC-1. Nature of the experiment: Quantification of viable cells by MTT assay, Müller cell line. Type of experiment: cell-based. To be noted: 5-160 nM, 72 h, P>0.05. On the procedure: as §1, §2
(Tetrazolium dyes change colour on reduction, which living cells bring about.)

Experiment [2] relates to vascular permeability in the retina, iris and choroid. Briefly: Vascular permeability by Evans blue leakage in OIR rats. Type of experiment: in vivo, Brown Norway rats. The protocol:
Next, the effect of kallistatin on vascular permeability was determined. At P14, two days after the rats were returned to normoxia, the OIR rats received an intravitreal injection of 3 μl of kallistatin of concentrations of 2.4, 4.8 and 9.6 mg/ml in the right eye (4 animals per dose group), and the same volume of PBS in the left. Two days after the kallistatin injection (P16), vascular permeability was measured by the Evans blue leakage method. […] Kallistatin injection decreased vascular permeability in a dose-dependent manner in the retina, iris and choroid of the hyperoxia-treated rats (FIG. 6).
Measurement of vascular permeability: Vascular permeability was quantified by measuring albumin leakage from blood vessels into the retina, iris and choroid using Evans blue following a documented protocol (Xu et al., 2001) with minor modifications. Evans blue dye (Sigma, St. Louis, Mo.) was dissolved in normal saline (30 mg/ml), sonicated for 5 min and filtered through a 0.45-μm filter (Millipore, Bedford, Mass.). The rats were anesthetized, and Evans blue (30 mg/kg) was injected over 10 seconds through the femoral vein using a glass capillary under microscopic inspection. Evans blue non-covalently binds to plasma albumin in the blood stream (Radius et al., 1980). Immediately after Evans blue infusion, the rats turned visibly blue, confirming their uptake and distribution of the dye. The rats were kept on a warm pad for 2 h to ensure the complete circulation of the dye. Then the chest cavity was opened, and the rats were perfused via the left ventricle with 1% paraformaldehyde in citrate buffer (pH=4.2) which was pre-warmed to 37° C. to prevent vasoconstriction. The perfusion lasted 2 min under the physiological pressure of 120 mmHg to clear the dye from the vessel. Immediately after perfusion, the eyes were enucleated and the retina, iris and choroid were carefully dissected under an operating microscope. Evans blue dye was extracted by incubating each sample in 150 μl formamide for 18 h at 70° C. The extract was centrifuged (TL; Beckman) at 70,000 rpm (Rotor type: TLA 100.3) for 20 min at 4° C. Absorbance was measured using 100 μl of the supernatant at 620 nm. The concentration of Evans blue in the extracts was calculated from a standard curve of Evans blue in formamide and normalized by the total protein concentration in each sample. Results were expressed in micrograms of Evans blue per milligrams of total protein content.

A further experiment deals with VEGF. Briefly: Retinal VEGF levels in OIR rats by Western blot. It is filed as in vivo, Brown Norway rats. Conditions: intravitreal injection of 25 μg, P<0.01. The protocol:
The effect of kallistatin on VEGF expression was also examined in vivo. After intravitreal injection of 25 μg kallistatin, VEGF levels were determined in the retina with OIR.
Induction of retinal neovascularization and intravitreal injection of kallistatin: Retinal neovascularization was induced as described by Smith et al. (Smith et al., 1994) with some modifications. Briefly, newborn pigmented Brown Norway rats at postnatal day 7 (P7) were exposed to hyperoxia (75% O2) for 5 days and then normoxia. Animals were anesthetized, and kallistatin was injected into the vitreous of the right eye through the pars plana using a glass capillary. The left eye received the same volume of PBS as the control. After injection, the animals were kept in normoxia for another 5 days for further analyses.
Western blot analysis: One hundred micrograms of total protein were used for Western blot analysis of VEGF using an ECL detection kit (Amersham International plc, Piscataway, N.J.) (Gao et al., 2001). The same membrane was stripped and re-blotted with an antibody specific to β-actin. VEGF levels were normalized by β-actin.
A general note: A western blot detects proteins with antibodies after separation by electrophoresis.

In experiment [3] the test system is primary human mesangial cells (HMC). Nature of the experiment: High glucose-induced fibronectin secretion in HMC (ELISA). Type of experiment: cell-based. Conditions: 30 mM glucose, 25 to 1600 nM, 3 days. On the procedure:
FIG. 11 illustrates blockage of high glucose-induced fibronectin secretion by kallistatin in human mesangial cells (HMC). Primary HMC was treated with high glucose (30 mM) in the presence of different concentrations of kallistatin as indicated for 3 days. Control cells were cultured in 5 mM glucose. To overcome the osmolarity difference, mannitol control cells were treated with 25 mM mannitol+5 mM glucose under the same conditions. Fibronectin secreted into the culture medium was measured by ELISA (mean±SD, n=3).
Cultured primary human mesangial cells (HMC) were treated with 30 mM glucose in the absence or presence of different concentrations of kallistatin (25-1600 nM) for 3 days. Cells cultured in 5 mM glucose were used as a control. To exclude the possible effect of osmolarity from high glucose, an osmolarity control was also included which was treated with 5 mM glucose and 25 mM mannitol. After the treatments for 3 days, secretion of fibronectin into the culture medium was measured.
For orientation: ELISA stands for enzyme-linked immunosorbent assay.

[4] abbreviates: 3 μl of 4.8 mg/ml intravitreal, P<0.05.
The mark [5] stands for this setting: 3 μl of 9.6 mg/ml intravitreal at P14, measured P16, P<0.01.

“Also recorded” adds a separate entry of the source.

B1: kallistatin: Recombinant His-tagged rat kallistatin (serpin, SEQ ID NO:1) expressed in E. coli and affinity-purified (protein, listed as Homo sapiens)
chain: DGILGRDTLPHEDQGKGRQLHSLTLASINTDFTLSLYKKLALRNPDKNVVFSPLSISAALAILSLGAKDSTMEEILEVLKFNLTEITEEEIHHQGFGHLLQRLSQPEDQAEINTGSALFIDKEQPILSEFQEKTRALYQAEAFVADFKQCNEAKKFINDYVSNQTQGKIAELFSELDERTSMVLVNYLLFKGKWKVPFNPNDTFESEFYLDEKRSVKVPMMKIKDLTTPYIRDEELSCSVLELKYTGNASALFILPDQGKMQQVESSLQPETLKKWKDSLRPRIISELRMPKFSISTDYNLEEVLPELGIRKIFSQQADLSRITGTKNLHVSQVVHKAVLDVDETGTEGAAATAVTAALKSLPQTIPPLNFNRPFMLVITDNNGQSVFFMGKVTNPM
modifications: His tag
In the case of B1, in the experiment on pericytes, the “inhibition of pericytes (viable cells)” value is “did not result in any significant inhibition”. The “inhibition of the Müller cell line (viable cells)” value in experiment [1] was “did not result in any significant inhibition”. Also, in experiment [2] (3 μl of 2.4 mg/ml intravitreal), the “vascular permeability, choroid” value is given as “did not show any significant effect”; the “vascular permeability, iris” value is on record as “did not show any significant effect”; the “vascular permeability, retina” value was “did not show any significant effect”. In addition, the “vascular leakage, choroid” value in experiment [2] (3 μl of 4.8 mg/ml intravitreal) is reported as “not in the choroid”. Further, in experiment [2] (setting [4]), the “vascular leakage, iris” value was “significantly decreased vascular leakage” and the “vascular leakage, retina” value was “significantly decreased vascular leakage”. In experiment [2] (setting [5]), the “vascular permeability, iris” value is reported as “significant decrease in permeability” and the “vascular permeability, retina” value is “significant decrease in permeability”. In experiment [2] (3 μl of 9.6 mg/ml intravitreal at P14, measured P16, P<0.05), the “vascular permeability, choroid” value is listed as “significant decrease in permeability”. The “retinal VEGF levels, % of the control” value in the experiment with VEGF is recorded as ~35 % of the control. Also, in experiment [3], the “fibronectin production (secretion into medium)” value is listed as “concentration-dependent decrease of fibronectin production; also recorded: fibronectin was significantly lower than the high glucose alone”.

These data come from patent US20070298997A1, “Compounds useful in treating diabetic microvascular complications and age-related macular degeneration” (priority 2003, published 2007).
